# Experimental data taken from patent publication US20260226524A1, “GLUTAMINE SYNTHETASE MARKER FOR RECOMBINANT EXPRESSION” (priority 2023, published 2026).
# B1: vesper bat GS: Pipistrellus kuhlii glutamine synthetase, SEQ ID NO: 8 (nucleotide SEQ ID NO: 17), used as selectable marker (protein, listed as Pipistrellus kuhlii)
# chain: MSTSASSQLNKGIKQMYMSLPQGDKVLAMYIWIDGTGEGLRCKTRTLDSEPKSIDELPEWNFDGSSTMQSEGSNSDMYLIPVAMFRDPFRKDPNKLIFCEVFKYNHKPAETNLRYTCKRIMDMVSNQHPWFGMEQEYTLMGTDGHPFGWPSNGFPGPQGPYYCGVGADRAYGRDIVEAHYRACLYAGIKIGGTNAEVMPAQWEFQIGPCEGIEMGDHLWVARFILHRVCEDFGVIATFDPKPIPGNWNGAGCHTNFSTKAMREENGLKYIEESIERLSKRHQYHIRAYDPKGGQDNARRLTGFHETSNINDFSAGVANRSASIRIPRAVGQEKKGYFEDRRPSANCDPFAVTEALIRTCLLNETGDEPFQYKN
# modifications: Vesper bat GS
# Tests used:
# [1] = test system: Chinese Hamster Ovary CHO-K1 (CCL-61) host cell; test: Bio-Layer Interferometry (Octet) analysis of denosumab expression in supernatants of cell pools selected with GS markers; type: cell-based; details: 50 μM MSX
# Protocol: Vector design: Nearly all selectable marker currently used in GS system is Cricetulus griseus-derived GS.
# (§1) After random integration, GS expression in each individual cell was evaluated by monitoring UnaG level using flow cytometry. Denosumab here served as the secreted reporter for assessing titers using selectable glutamine synthetase markers from different species. The vectors differed from one another by the GS-coding sequences, which were derived from Chinese hamster (Cricetulus griseus), koala (Phascolarctos cinerecus), vesper bat (Pipistrellus kuhlii), gerbil (Meriones unguiculatus), ostrich (Struthio camelus australis), junglefowl (Gallus gallus), pigeon (Columbia Livia), and snake (Pseudonaja textilis), respectively.
# (§2) Electroporation and cell screening: Expression vectors described above were first linearized by the restriction endonuclease Pvul (there was one Pvul site in the ampicillin resistant gene). Then linearized vectors were introduced into the host cell using cell electroporator (Lonza Nuleofector 2b). The host cell was derived from ATCC wild-type Chinese Hamster Ovary CHO-K1 (CCL-61) and adapted to serum-free suspension culture at Shanghai ZhenGe Biotech Co. Ltd. 24 hours post electroporation, cell pools were plated into culture flasks or 96-well plates (approximately 1, 200 cells/well, 300 wells per condition) in the absence of or presence of MSX (50 μM).
# [2] = test system: Chinese Hamster Ovary CHO-K1 (CCL-61) host cell; test: Flow cytometry analysis of GS expression via UnaG fluorescence in electroporated cell pools; type: cell-based; details: about 3 weeks post-seeding, MSX selection, FIGS. 3A-3B
# From the text: Vector design: Nearly all selectable marker currently used in GS system is Cricetulus griseus-derived GS. To investigate whether the GS from other species further improve titer or screening efficiency, a set of vectors were designed as described below: • a sequence coding for an eel green fluorescent protein UnaG, a 2A self-cleaving peptide and a glutamine synthetase, placed under the control of the SV40 promoter; • two expression cassettes, in which the sequences coding for the heavy chain and light chain of a human anti-RANKL antibody denosumab were placed under the control of CMV promoters, respectively; • a sequence coding for a protein conferring resistance to ampicillin, for use in prokaryotic cells; and • a prokaryotic origin of replication.
# as §1, with “The 2A self-cleaving peptide allowed relatively equal molar expression of the two products separated by it, namely, the green fluorescent protein UnaG and glutamine synthetase. After” for “After”
# as §2
# Flow cytometry analysis of GS expression: About 3 weeks post-seeding, cell pools electroporated with GS gene from indicated species were analyzed using Attune NxT flow cytometer (FIGS. 3A-3C). […] As shown, when the GS from Chinese Hamster was used as the selectable marker, most tested cells (>98%) remained UnaG “negative” in the presence of the MSX, indicating low selection efficiency.
molecule,measurement,setting,value
B1,pools expressed detectable denosumab (>0.125 ug/mL),"[1]; Day 20, among 300 seeded pools in 96-well plates, GS used as selectable marker",94.0%
same,median expression value of denosumab of positive pools,"[1]; Day 20, positive pools (>0.125 ug/mL), Octet ProA biosensor",3.39 µg/mL
same,UnaG expression of cells (selection efficiency),[2],significant amounts of cells showed positive UnaG expression
